Assay results taken from publication PMC5762392 (Nature biotechnology, 2017).
Non-standard residues stand in square brackets, D forms with d. No end group written: not given here. *: point of attachment. Biotin = O=C1N[C@H]2[C@H](CS[C@H]2CCCCC(=O)*)N1; Lys(Me2) = CN(C)CCCC[C@H](N)C(=O)O

Biological target: MBP fused to the Tudor domain (residues 1484–1603) of 53BP1 (human, UniProt Q12888 1484-1603)
Experiment: pull-down

Sequence of MBP fused to the Tudor domain (residues 1484–1603) of 53BP1 (Q12888 1484-1603): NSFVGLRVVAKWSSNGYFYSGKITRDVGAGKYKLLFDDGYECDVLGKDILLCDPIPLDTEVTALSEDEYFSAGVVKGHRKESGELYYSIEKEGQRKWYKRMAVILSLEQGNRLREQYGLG

{Biotin-Mini‑PEG}-YGKGGAKRHR[Lys(Me2)]VLRD [biotin-labeled peptide derived from histone H4K20me2]
IC50: 100 to 300 µM
